Test results published in patent publication US20260274955A1 (JANUX THERAPEUTICS, published 2026).

B1: Phage-499 (peptide)
peptide: YCEGHVTEYMQKCL
notes: on phage, pIII fusion
B2: Phage-498 (peptide)
peptide: YCDGHLSEYMSKCL
notes: on phage, pIII fusion
B3: Phage-521 (peptide)
peptide: YCEGHSVEYIGKCL
notes: on phage, pIII fusion
B4: Phage-523 (peptide)
peptide: YCEGHSWEHMEKCL
notes: on phage, pIII fusion
B5: Phage-525 (peptide)
peptide: YCDGHLPQYLQKCT
notes: on phage, pIII fusion
B6: Phage-526 (peptide)
peptide: YCDGHAKEYIQKCL
notes: on phage, pIII fusion
B7: Phage-529 (peptide)
peptide: YCDGHAEEYLLKCL
notes: on phage, pIII fusion
B8: Phage-502 (peptide)
peptide: YCDGHELKYMLKCL
notes: on phage, pIII fusion
B9: Phage-557 (peptide)
peptide: YCAGHLPVYMDKCL
notes: on phage, pIII fusion
B10: Phage-567 (peptide)
peptide: YCSGHLPQYLEKCL
notes: on phage, pIII fusion
B11: Phage-547 (peptide)
peptide: YCEGHAPVYMFKCL
notes: on phage, pIII fusion
B12: Phage-553 (peptide)
peptide: YCDGHSVEYLDKCL
notes: on phage, pIII fusion
B13: Phage-506 (peptide)
peptide: YCAGHSPQYMEKCL
notes: on phage, pIII fusion
B14: Phage-559 (peptide)
peptide: YCAGHLEEYMWKCL
notes: on phage, pIII fusion
B15: Phage-548 (peptide)
peptide: YCEGHLGQYMEKCL
notes: on phage, pIII fusion
B16: Phage-527 (peptide)
peptide: YCEGHLPQYMVKCL
notes: on phage, pIII fusion
B17: Phage-555 (peptide)
peptide: YCDGHLPEYLAKCL
notes: on phage, pIII fusion
B18: Phage-496 (peptide)
peptide: YCAGHLPEYMGKCL
notes: on phage, pIII fusion
B19: Phage-556 (peptide)
peptide: YCDGHLAVYMAKCL
notes: on phage, pIII fusion
B20: Phage-490 (peptide)
peptide: YCEGHSSEYMWKCL
notes: on phage, pIII fusion
B21: Phage-489 (peptide)
peptide: YCAGHAPEYMSKCL
notes: on phage, pIII fusion
B22: Phage-485 (peptide)
peptide: YCEGHMWEYMAKCL
notes: on phage, pIII fusion
B23: Phage-531 (peptide)
peptide: YCDGHSWQYMWKCI
notes: on phage, pIII fusion
B24: Phage-551 (peptide)
peptide: YCEGHSIQYMTKCL
notes: on phage, pIII fusion
B25: Phage-493 (peptide)
peptide: YCEGHSWVYMAKCL
notes: on phage, pIII fusion
B26: Phage-492 (peptide)
peptide: YCEGHLEQYMQKCL
notes: on phage, pIII fusion
B27: Phage-480 (peptide)
peptide: YCEGHIAEYMQKCL
notes: on phage, pIII fusion
B28: Phage-569 (peptide)
peptide: YCDGHLALHMKKCL
notes: on phage, pIII fusion
B29: Phage-558 (peptide)
peptide: YCEGHSAMYIWKCL
notes: on phage, pIII fusion
B30: Phage-552 (peptide)
peptide: YCDGHLQIYMGKCL
notes: on phage, pIII fusion
B31: Phage-530 (peptide)
peptide: YCEGHLGIYMTKCL
notes: on phage, pIII fusion
B32: Phage-528 (peptide)
peptide: YCQGHADEYMAKCL
notes: on phage, pIII fusion
B33: Phage-565 (peptide)
peptide: YCDGHKAEYMQKCL
notes: on phage, pIII fusion
B34: Phage-495 (peptide)
peptide: YCDGHSEAFMQKCL
notes: on phage, pIII fusion
B35: Phage-566 (peptide)
peptide: YCDGHSPQYIQKCL
notes: on phage, pIII fusion
B36: Phage-484 (peptide)
peptide: YCDGHATEYMQKCL
notes: on phage, pIII fusion
B37: Phage-503 (peptide)
peptide: YCDGHLLEYKAKCL
notes: on phage, pIII fusion
B38: Phage-482 (peptide)
peptide: YCEGHTAEHMQKCL
notes: on phage, pIII fusion
B39: Phage-524 (peptide)
peptide: YCAGHSSEYIPKCL
notes: on phage, pIII fusion
B40: Phage-481 (peptide)
peptide: YCEGHSAQYMHKCL
notes: on phage, pIII fusion
B41: Phage-550 (peptide)
peptide: YCDGHAPEYLTKCL
notes: on phage, pIII fusion; cell for position 6 is missing in the printed row
B42: Phage-483 (peptide)
peptide: YCAGHVAEYMAKCL
notes: on phage, pIII fusion
B43: Phage-532 (peptide)
peptide: YCEGHSEEFMSKCL
notes: on phage, pIII fusion
B44: Phage-520 (peptide)
peptide: YCEGHADEYMWKCL
notes: on phage, pIII fusion
B45: Phage-549 (peptide)
peptide: YCDGHNGVYWWKCI
notes: on phage, pIII fusion
B46: Phage-491 (peptide)
peptide: YCDGHLDVYRAKCL
notes: on phage, pIII fusion
B47: Phage-554 (peptide)
peptide: YCDGHAWQYMWKCL
notes: on phage, pIII fusion
B48: Phage-487 (peptide)
peptide: YCAGHSLEYMQKCL
notes: on phage, pIII fusion
B49: Phage-505 (peptide)
peptide: YCDGHSPEYMLKCL
notes: on phage, pIII fusion
B50: Phage-568 (peptide)
peptide: YCDGHHKEYLLKCL
notes: on phage, pIII fusion
B51: Phage-488 (peptide)
peptide: YCEGHDLIYMWKCL
notes: on phage, pIII fusion
B52: Phage-497 (peptide)
peptide: YCAGHLAIYMSKCL
notes: on phage, pIII fusion

Columns and labels:
[1] = molecular target: T1, anti-CD28 Fab (SEQ ID NOs: 202, 203); assay: phage ELISA on captured Fab, wells pre-incubated with CD28 antigen (competitor);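 note: clonal phage ELISA with wells pretreated with CD28 plus blocking buffer before phage addition, bound phage detected by HRP-linked anti-M13 antibody, reference wells got blocking buffer only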
T1 construct: biotinylated and captured on neutravidin coated plates in the phage ELISA
T1 sequence (VH, as listed by the source, chain 1 of 2): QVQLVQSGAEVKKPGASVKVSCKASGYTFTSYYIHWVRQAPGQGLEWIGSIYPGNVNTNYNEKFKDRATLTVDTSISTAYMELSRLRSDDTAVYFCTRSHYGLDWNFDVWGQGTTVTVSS
T1 sequence (VL, as listed by the source, chain 2 of 2): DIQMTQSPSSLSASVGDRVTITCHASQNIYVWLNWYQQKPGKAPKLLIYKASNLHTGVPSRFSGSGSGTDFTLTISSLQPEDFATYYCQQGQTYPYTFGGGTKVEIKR
Procedure: (§1) Clonal phage were harvested as crude supernatants and screened via standard ELISAs. […] Prior to the addition of clonal phage, wells were incubated with blocking buffer and CD28 antigen or blocking buffer alone. Without washing or aspirating, clonal phage supernatants were then added to the wells and incubated for a short time. Wells were then washed followed by detection of bound phage using a horse radish conjugated anti-M13 antibody.

[2] = molecular target: T1, anti-CD28 Fab (SEQ ID NOs: 202, 203); assay: phage ELISA on captured Fab;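 note: ELISA with clonal phage supernatants added to wells preincubated with CD28 antigen or with blocking buffer only, bound phage detected by HRP-conjugated anti-M13 antibody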
Procedure: as §1

Binder	Anti-CD28 Fab signal in the presence of CD28 [1]	Anti-CD28 Fab (SEQ ID NOs: 202, 203) signal [2]
B1	0.08	1.62
B2	0.06	1.62
B3	0.07	1.59
B4	0.06	1.58
B5	0.07	1.58
B6	0.06	1.58
B7	0.05	1.57
B8	0.08	1.62
B9	0.08	1.52
B10	0.31	1.5
B11	0.08	1.54
B12	0.08	1.53
B13	0.06	1.61
B14	0.08	1.51
B15	0.08	1.54
B16	0.07	1.58
B17	0.06	1.52
B18	0.07	1.63
B19	0.08	1.52
B20	0.09	1.63
B21	0.05	1.63
B22	0.13	1.64
B23	0.09	1.57
B24	0.13	1.53
B25	0.07	1.63
B26	0.06	1.63

Binder	Anti-CD28 Fab signal in the presence of CD28 [1]	Anti-CD28 Fab (SEQ ID NOs: 202, 203) signal [2]
B27	0.13	1.64
B28	0.08	1.49
B29	0.1	1.52
B30	0.06	1.53
B31	0.08	1.57
B32	0.08	1.58
B33	0.06	1.5
B34	0.07	1.63
B35	0.07	1.5
B36	0.1	1.64
B37	0.07	1.62
B38	0.05	1.64
B39	0.09	1.58
B40	0.06	1.64
B41	0.06	1.53
B42	0.06	1.64
B43	0.08	1.57
B44	0.06	1.59
B45	0.07	1.53
B46	0.09	1.63
B47	0.07	1.53
B48	0.07	1.63
B49	0.07	1.61
B50	0.06	1.49
B51	0.06	1.63
B52	0.08	1.63
